These results are taken from PMC3068233.

The target of one data set is T1, HMGB1 domain A C44A (UniProt P09429 9-79, C45A).
T1 sequence: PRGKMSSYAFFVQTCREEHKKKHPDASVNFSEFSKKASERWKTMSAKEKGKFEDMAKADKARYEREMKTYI
The data set is described as follows: EMSA.

For another data set, the target named is T2, HMGB1 domain A C22A (UniProt P09429 9-79, C23A).
T2 sequence: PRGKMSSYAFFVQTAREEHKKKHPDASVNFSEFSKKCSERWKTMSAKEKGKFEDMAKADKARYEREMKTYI
The data set is described as follows: EMSA.

The target in the next data set is T3, HMGB1 domain A C44S (UniProt P09429 9-79, C45S).
T3 sequence: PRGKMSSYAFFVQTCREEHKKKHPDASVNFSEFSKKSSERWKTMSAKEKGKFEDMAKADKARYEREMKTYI
The data set is described as follows: EMSA.

In the next data set the target is T4, HMGB1 domain A C22S/C44S (UniProt P09429 9-79, C23S;C45S).
T4 sequence: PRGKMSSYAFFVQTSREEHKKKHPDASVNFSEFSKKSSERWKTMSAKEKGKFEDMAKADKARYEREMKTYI
The experiment in a line: EMSA.

The next data set deals with T5, HMGB1 domain A C22A/C44A (UniProt P09429 9-79, C23A;C45A).
T5 sequence: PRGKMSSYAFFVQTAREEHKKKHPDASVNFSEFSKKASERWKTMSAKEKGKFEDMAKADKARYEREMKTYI
The data set is described as follows: hydroxyl radical footprinting.

A further data set deals with T6, HMGB1 domain A wild type (UniProt P09429 9-79).
T6 sequence: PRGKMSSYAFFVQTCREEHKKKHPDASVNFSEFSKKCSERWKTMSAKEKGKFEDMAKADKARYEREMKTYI
The experiment in a line: EMSA.

B1: 25-bp cisplatin-modified TGGA probe (dsDNA)
DNA 1: CCTCTCCTCTCTGGATCTTCTCTCC
DNA 2: GGAGAGAAGATCCAGAGAGGAGAGG
modifications: cisplatin 1,2-d(GpG) intrastrand cross-link at N7 of G13 and G14 of strand 1
On to B1, for which the dissociation constant (Kd) with HMGB1 domain A C44A was found to be 2.41 ± 0.31 nM; in the data set with HMGB1 domain A C22A, 1.12 ± 0.14 nM; with HMGB1 domain A C44S, 1.6 ± 0.07 nM; with HMGB1 domain A C22S/C44S, 1.65 ± 0.37 nM; with HMGB1 domain A wild type, 0.7 ± 0.1 nM. Moreover, the binding result with HMGB1 domain A C22A/C44A is listed as “binds”.
